Data on 5 molecules can be found in US20140087995A1 (published 2014).

Numbered stars: 1 amine (or outer) side, 2 acyl side, 3 side chain; on linkers, the order of the positions; unused ones are H or OH. Bridge positions count the residues as written; N and C are the ends. Side chains are listed from the residue outwards. Ends that are not written are not given here. * marks the point of attachment. C20 diacid = O=C(O)CCCCCCCCCCCCCCCCCCC(=O)*; γGlu = O=C(O)[C@H](CCC(=O)[*:2])N[*:1]

In test [1] the target is T1, rat calcitonin receptor (rat, UniProt P32214 25-516).
T1 construct: whole, on cells; Used as membranes prepared from BHK tk'ts 13 cells transiently transfected with the rat calcitonin receptor (Assay VIII); also called rCTR; rat calcitonin (a) receptor
T1 sequence (looked up): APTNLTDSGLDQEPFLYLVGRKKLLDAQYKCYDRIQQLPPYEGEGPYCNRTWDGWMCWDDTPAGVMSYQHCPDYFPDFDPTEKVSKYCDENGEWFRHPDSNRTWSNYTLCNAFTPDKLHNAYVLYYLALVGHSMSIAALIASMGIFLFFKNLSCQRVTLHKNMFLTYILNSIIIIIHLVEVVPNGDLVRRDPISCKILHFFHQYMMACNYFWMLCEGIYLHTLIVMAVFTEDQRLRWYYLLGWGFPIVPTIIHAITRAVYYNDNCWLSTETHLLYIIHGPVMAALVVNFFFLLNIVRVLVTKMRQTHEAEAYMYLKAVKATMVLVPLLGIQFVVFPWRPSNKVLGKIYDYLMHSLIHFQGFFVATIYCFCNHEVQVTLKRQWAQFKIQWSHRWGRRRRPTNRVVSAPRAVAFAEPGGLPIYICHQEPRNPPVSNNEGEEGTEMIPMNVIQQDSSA
The experiment in a line: IC50 on rat CTR divided by IC50 on rat amylin receptor (Assays VIII/VI).

The target of test [2] is T2, human calcitonin receptor (human, UniProt P30988 25-474).
T2 construct: whole, on cells; Used as membranes prepared from a BHK tk'ts 13 cell line stably transfected with the human calcitonin receptor (Assay VII); also called hCTR; hCT
T2 sequence (looked up): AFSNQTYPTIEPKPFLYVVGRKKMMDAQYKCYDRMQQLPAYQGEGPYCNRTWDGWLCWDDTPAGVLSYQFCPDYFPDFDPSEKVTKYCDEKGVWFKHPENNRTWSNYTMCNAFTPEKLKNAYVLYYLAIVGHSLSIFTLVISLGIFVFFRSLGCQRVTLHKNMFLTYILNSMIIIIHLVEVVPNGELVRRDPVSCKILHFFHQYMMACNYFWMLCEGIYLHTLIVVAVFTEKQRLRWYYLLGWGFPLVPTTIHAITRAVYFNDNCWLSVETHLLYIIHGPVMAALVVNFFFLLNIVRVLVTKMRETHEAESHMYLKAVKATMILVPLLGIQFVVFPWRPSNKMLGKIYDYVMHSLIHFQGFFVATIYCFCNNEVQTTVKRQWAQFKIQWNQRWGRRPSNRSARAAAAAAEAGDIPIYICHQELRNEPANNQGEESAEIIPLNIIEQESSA
The experiment in a line: IC50 on human CTR divided by IC50 on human amylin receptor (Assays VII/V). Put shortly:
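Scintillation proximity competition binding on cell membranes at 35 ng/μL with SPA beads, in 50 mM Hepes pH 7.4, 1 mM CaCl2, 5 mM MgCl₂, 0.1% OA, 0.02% Tween20. Incubated 120 min at 25° C with shaking. IC₅₀ from one-site competition fit.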

Test [3] has as its target T3, rat amylin receptor (rat calcitonin receptor + rat RAMP 3) (rat, UniProt P32214 25-516; Q9JJ73 23-147).
T3 construct: whole, on cells; Used as membranes prepared from BHK tk'ts 13 cells transiently transfected with rat calcitonin receptor and rat RAMP 3 (Assay VI); also called rAmylin-R; rat amylin 3(a) receptor
T3 sequence (looked up) 1: T1 sequence (looked up)
T3 sequence (looked up) 2: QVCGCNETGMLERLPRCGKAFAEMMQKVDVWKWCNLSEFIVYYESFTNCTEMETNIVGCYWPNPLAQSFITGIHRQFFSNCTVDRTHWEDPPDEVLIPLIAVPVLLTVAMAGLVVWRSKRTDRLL
The experiment in a line: SPA competition with 125I-rat amylin, membranes of BHK cells with rat CTR + rat RAMP3 (Assay VI).

Test [4] deals with T1, rat calcitonin receptor. Kind of test: SPA competition with 125I-calcitonin, membranes of BHK cells with rat CTR (Assay VIII).

B1: N^ε1-[(4S)-4-carboxy-4-(19-carboxynonadecanoylamino)butanoyl]-[His14,Arg17,Pro21,Pro27,His34]-h-amylin (peptide)
peptide: K([γGlu-C20 diacid])CNTATCATQRLAHFLRHSSPNFGAIPSSTNVGHNTY-NH2
modifications: disulfide 2-7; N-terminus assumed
SMILES: CC[C@H](C)[C@H](NC(=O)[C@H](C)NC(=O)CNC(=O)[C@H](Cc1ccccc1)NC(=O)[C@H](CC(N)=O)NC(=O)[C@@H]1CCCN1C(=O)[C@H](CO)NC(=O)[C@H](CO)NC(=O)[C@H](Cc1c[nH]cn1)NC(=O)[C@H](CCCNC(=N)N)NC(=O)[C@H](CC(C)C)NC(=O)[C@H](Cc1ccccc1)NC(=O)[C@H](Cc1c[nH]cn1)NC(=O)[C@H](C)NC(=O)[C@H](CC(C)C)NC(=O)[C@H](CCCNC(=N)N)NC(=O)[C@H](CCC(N)=O)NC(=O)[C@@H](NC(=O)[C@H](C)NC(=O)[C@@H]1CSSC[C@H](NC(=O)[C@@H](N)CCCCNC(=O)CC[C@H](NC(=O)CCCCCCCCCCCCCCCCCCC(=O)O)C(=O)O)C(=O)N[C@@H](CC(N)=O)C(=O)N[C@@H]([C@@H](C)O)C(=O)N[C@@H](C)C(=O)N[C@@H]([C@@H](C)O)C(=O)N1)[C@@H](C)O)C(=O)N1CCC[C@H]1C(=O)N[C@@H](CO)C(=O)N[C@@H](CO)C(=O)N[C@H](C(=O)N[C@@H](CC(N)=O)C(=O)N[C@H](C(=O)NCC(=O)N[C@@H](Cc1c[nH]cn1)C(=O)N[C@@H](CC(N)=O)C(=O)N[C@H](C(=O)N[C@@H](Cc1ccc(O)cc1)C(N)=O)[C@@H](C)O)C(C)C)[C@@H](C)O
notes: Analogue of human amylin; also called compound 81
On to B1, for which the “Ratio rCT/rAmylin binding” value in the test with rat calcitonin receptor [1] came out at 42.9. Besides, the “Ratio hCT/hAmylin binding” value in test [2] is 87.2. In addition, the IC50 turned out to be 1.42 nM in test [3] and 61.1 nM with rat calcitonin receptor [4].

B2: N^ε1N^ε1-[(4S)-4-carboxy-4-(19-carboxynonadecanoylamino)butanoyl]-[His14,Arg17,Pro21,Pro27,Pro34]-h-amylin (peptide)
peptide: K([γGlu-C20 diacid])CNTATCATQRLAHFLRHSSPNFGAIPSSTNVGPNTY-NH2
modifications: disulfide 2-7; N-terminus assumed
SMILES: CC[C@H](C)[C@H](NC(=O)[C@H](C)NC(=O)CNC(=O)[C@H](Cc1ccccc1)NC(=O)[C@H](CC(N)=O)NC(=O)[C@@H]1CCCN1C(=O)[C@H](CO)NC(=O)[C@H](CO)NC(=O)[C@H](Cc1c[nH]cn1)NC(=O)[C@H](CCCNC(=N)N)NC(=O)[C@H](CC(C)C)NC(=O)[C@H](Cc1ccccc1)NC(=O)[C@H](Cc1c[nH]cn1)NC(=O)[C@H](C)NC(=O)[C@H](CC(C)C)NC(=O)[C@H](CCCNC(=N)N)NC(=O)[C@H](CCC(N)=O)NC(=O)[C@@H](NC(=O)[C@H](C)NC(=O)[C@@H]1CSSC[C@H](NC(=O)[C@@H](N)CCCCNC(=O)CC[C@H](NC(=O)CCCCCCCCCCCCCCCCCCC(=O)O)C(=O)O)C(=O)N[C@@H](CC(N)=O)C(=O)N[C@@H]([C@@H](C)O)C(=O)N[C@@H](C)C(=O)N[C@@H]([C@@H](C)O)C(=O)N1)[C@@H](C)O)C(=O)N1CCC[C@H]1C(=O)N[C@@H](CO)C(=O)N[C@@H](CO)C(=O)N[C@H](C(=O)N[C@@H](CC(N)=O)C(=O)N[C@H](C(=O)NCC(=O)N1CCC[C@H]1C(=O)N[C@@H](CC(N)=O)C(=O)N[C@H](C(=O)N[C@@H](Cc1ccc(O)cc1)C(N)=O)[C@@H](C)O)C(C)C)[C@@H](C)O
notes: Analogue of human amylin; also called compound 67
For B2, in the test with rat calcitonin receptor [1], the “Ratio rCT/rAmylin binding” value worked out at 85.4. In test [2], the “Ratio hCT/hAmylin binding” value amounted to 51.6. For the same molecule, the IC50 was determined as 0.172 nM in test [3] and 14.7 nM with rat calcitonin receptor [4].

B3: N^ε1-[(4S)-4-carboxy-4-(19-carboxynonadecanoylamino)butanoyl]-[His14,Arg17,Pro21,Pro27,Pro31]-h-amylin (peptide)
peptide: K([γGlu-C20 diacid])CNTATCATQRLAHFLRHSSPNFGAIPSSTPVGSNTY-NH2
modifications: disulfide 2-7; N-terminus assumed
SMILES: CC[C@H](C)[C@H](NC(=O)[C@H](C)NC(=O)CNC(=O)[C@H](Cc1ccccc1)NC(=O)[C@H](CC(N)=O)NC(=O)[C@@H]1CCCN1C(=O)[C@H](CO)NC(=O)[C@H](CO)NC(=O)[C@H](Cc1c[nH]cn1)NC(=O)[C@H](CCCNC(=N)N)NC(=O)[C@H](CC(C)C)NC(=O)[C@H](Cc1ccccc1)NC(=O)[C@H](Cc1c[nH]cn1)NC(=O)[C@H](C)NC(=O)[C@H](CC(C)C)NC(=O)[C@H](CCCNC(=N)N)NC(=O)[C@H](CCC(N)=O)NC(=O)[C@@H](NC(=O)[C@H](C)NC(=O)[C@@H]1CSSC[C@H](NC(=O)[C@@H](N)CCCCNC(=O)CC[C@H](NC(=O)CCCCCCCCCCCCCCCCCCC(=O)O)C(=O)O)C(=O)N[C@@H](CC(N)=O)C(=O)N[C@@H]([C@@H](C)O)C(=O)N[C@@H](C)C(=O)N[C@@H]([C@@H](C)O)C(=O)N1)[C@@H](C)O)C(=O)N1CCC[C@H]1C(=O)N[C@@H](CO)C(=O)N[C@@H](CO)C(=O)N[C@H](C(=O)N1CCC[C@H]1C(=O)N[C@H](C(=O)NCC(=O)N[C@@H](CO)C(=O)N[C@@H](CC(N)=O)C(=O)N[C@H](C(=O)N[C@@H](Cc1ccc(O)cc1)C(N)=O)[C@@H](C)O)C(C)C)[C@@H](C)O
notes: Analogue of human amylin; also called compound 62
For the molecule B3, the “Ratio rCT/rAmylin binding” value in the test with rat calcitonin receptor [1] stood at 42.8. The “Ratio hCT/hAmylin binding” value in test [2] was determined as 63. Also, the half-maximal inhibitory concentration (IC50) in test [3] stood at 0.42 nM; with rat calcitonin receptor [4] it was 18 nM.

B4: N^ε1-[(4S)-4-carboxy-4-(19-carboxynonadecanoylamino)butanoyl]-[His14,Arg17,Pro21,Pro27,His35]-h-amylin (peptide)
peptide: K([γGlu-C20 diacid])CNTATCATQRLAHFLRHSSPNFGAIPSSTNVGSHTY-NH2
modifications: disulfide 2-7; N-terminus assumed
SMILES: CC[C@H](C)[C@H](NC(=O)[C@H](C)NC(=O)CNC(=O)[C@H](Cc1ccccc1)NC(=O)[C@H](CC(N)=O)NC(=O)[C@@H]1CCCN1C(=O)[C@H](CO)NC(=O)[C@H](CO)NC(=O)[C@H](Cc1c[nH]cn1)NC(=O)[C@H](CCCNC(=N)N)NC(=O)[C@H](CC(C)C)NC(=O)[C@H](Cc1ccccc1)NC(=O)[C@H](Cc1c[nH]cn1)NC(=O)[C@H](C)NC(=O)[C@H](CC(C)C)NC(=O)[C@H](CCCNC(=N)N)NC(=O)[C@H](CCC(N)=O)NC(=O)[C@@H](NC(=O)[C@H](C)NC(=O)[C@@H]1CSSC[C@H](NC(=O)[C@@H](N)CCCCNC(=O)CC[C@H](NC(=O)CCCCCCCCCCCCCCCCCCC(=O)O)C(=O)O)C(=O)N[C@@H](CC(N)=O)C(=O)N[C@@H]([C@@H](C)O)C(=O)N[C@@H](C)C(=O)N[C@@H]([C@@H](C)O)C(=O)N1)[C@@H](C)O)C(=O)N1CCC[C@H]1C(=O)N[C@@H](CO)C(=O)N[C@@H](CO)C(=O)N[C@H](C(=O)N[C@@H](CC(N)=O)C(=O)N[C@H](C(=O)NCC(=O)N[C@@H](CO)C(=O)N[C@@H](Cc1c[nH]cn1)C(=O)N[C@H](C(=O)N[C@@H](Cc1ccc(O)cc1)C(N)=O)[C@@H](C)O)C(C)C)[C@@H](C)O
notes: Analogue of human amylin; also called compound 66
For B4, the “Ratio rCT/rAmylin binding” value in the test with rat calcitonin receptor [1] amounted to 35.8. Moreover, the “Ratio hCT/hAmylin binding” value in test [2] stood at 45.5. In addition, the half-inhibitory concentration (IC50) was 0.581 nM in test [3] and 20.8 nM with rat calcitonin receptor [4].

B5: N^ε1-[(4S)-4-carboxy-4-(19-carboxynonadecanoylamino)butanoyl]-[His14,Arg17,Pro21,Pro27]-h-amylin (peptide)
peptide: K([γGlu-C20 diacid])CNTATCATQRLAHFLRHSSPNFGAIPSSTNVGSNTY-NH2
modifications: disulfide 2-7; N-terminus assumed
SMILES: CC[C@H](C)[C@H](NC(=O)[C@H](C)NC(=O)CNC(=O)[C@H](Cc1ccccc1)NC(=O)[C@H](CC(N)=O)NC(=O)[C@@H]1CCCN1C(=O)[C@H](CO)NC(=O)[C@H](CO)NC(=O)[C@H](Cc1c[nH]cn1)NC(=O)[C@H](CCCNC(=N)N)NC(=O)[C@H](CC(C)C)NC(=O)[C@H](Cc1ccccc1)NC(=O)[C@H](Cc1c[nH]cn1)NC(=O)[C@H](C)NC(=O)[C@H](CC(C)C)NC(=O)[C@H](CCCNC(=N)N)NC(=O)[C@H](CCC(N)=O)NC(=O)[C@@H](NC(=O)[C@H](C)NC(=O)[C@@H]1CSSC[C@H](NC(=O)[C@@H](N)CCCCNC(=O)CC[C@H](NC(=O)CCCCCCCCCCCCCCCCCCC(=O)O)C(=O)O)C(=O)N[C@@H](CC(N)=O)C(=O)N[C@@H]([C@@H](C)O)C(=O)N[C@@H](C)C(=O)N[C@@H]([C@@H](C)O)C(=O)N1)[C@@H](C)O)C(=O)N1CCC[C@H]1C(=O)N[C@@H](CO)C(=O)N[C@@H](CO)C(=O)N[C@H](C(=O)N[C@@H](CC(N)=O)C(=O)N[C@H](C(=O)NCC(=O)N[C@@H](CO)C(=O)N[C@@H](CC(N)=O)C(=O)N[C@H](C(=O)N[C@@H](Cc1ccc(O)cc1)C(N)=O)[C@@H](C)O)C(C)C)[C@@H](C)O
notes: Analogue of human amylin; also called compound 70
Consider B5, for which the “Ratio rCT/rAmylin binding” value with rat calcitonin receptor [1] was 96.5. The “Ratio hCT/hAmylin binding” value in test [2] stood at 60.8. In addition, the IC50 in test [3] turned out to be 0.355 nM; in the test with rat calcitonin receptor [4] it was 34.2 nM.

Broadly, the IC50 is the point on the concentration scale where inhibition reaches its midpoint.
